Residue numbers refer to the chain shown, from its start.

The text below walks through data of US20080009038A1 (Chugai, published 2008).

The labels stand for the following.
B1: VB16 sc(Fv)2 (scFv, part only; not given: linkers and FLAG tag, part only)
scFv, part: QVQLQQPGTELVRPGASVKLSCKASGYTFTDYWVNWVKQRPGRGLEWIGRIHPYDSETHYNQKFKNKATLTVDKSSSTAYIQLSSLTSEDSAVYYCASGGWFASWGQGTLVTVSADIVMTQAAPSVPVTPGESVSISCRSSKSLLYSNGNTYLYWFLQRPGQSPQLLIYRMSNLASGVPDRFSGSGSGTAFTLTISSVEAEDVGVYYCMQHLEYPYTFGSGTKLEIKQVQLQQPGTELVRPGASVKLSCKASGYTFTDYWVNWVKQRPGRGLEWIGRIHPYDSETHYNQKFKNKATLTVDKSSSTAYIQLSSLTSEDSAVYYCASGGWFASWGQGTLVTVSADIVMTQAAPSVPVTPGESVSISCRSSKSLLYSNGNTYLYWFLQRPGQSPQLLIYRMSNLASGVPDRFSGSGSGTAFTLTISSVEAEDVGVYYCMQHLEYPYTFGSGTKLEIK
B2: TA136 sc(Fv)2 (scFv, part only; not given: linkers and FLAG tag, part only)
scFv, part: DVQLQESGPGLVKPSQSLSLTCTVTGYSITSDYAWSWIRQLPGNKLEWMGYITYSGYSIYNPSLKSRISISRDTSKNQLFLQLNSVTTEDTATYYCVGGYDNMDYWGQGTSVTVSSQIVLTQSPAIMSASPGEKVTLTCSASSSVSSSHLYWYQQKPGSSPKLWIYSTSNLASGVPARFSGSGSGTSYSLTISNMETEDAASYFCHQWSSYPWTFGGGTKLEIKDVQLQESGPGLVKPSQSLSLTCTVTGYSITSDYAWSWIRQLPGNKLEWMGYITYSGYSIYNPSLKSRISISRDTSKNQLFLQLNSVTTEDTATYYCVGGYDNMDYWGQGTSVTVSSQIVLTQSPAIMSASPGEKVTLTCSASSSVSSSHLYWYQQKPGSSPKLWIYSTSNLASGVPARFSGSGSGTSYSLTISNMETEDAASYFCHQWSSYPWTFGGGTKLEIK
B3: VB45B sc(Fv)2 (scFv, part only; not given: linkers and FLAG tag, part only)
scFv, part: QVQLQQSGPELVKPGASVKISCKASGYAFSSSWMNWVKQRPGKGLEWIGRIYPGDGETNNNGKFKGKATLTADKSSTTAYMQLSSLTSEDSAVYFCARGYGDYSFAYWGQGTLVTVSADIVMTQAAPSVPVTPGESVSISCRSSKSLLHSNGNTYLYWFLQRPGQSPQLLIYRMSNLASGVPDRFSGSGSGAAFTLRISRVEAEDVGVYYCMQHLEYPYTFGSGTKLEIKQVQLQQSGPELVKPGASVKISCKASGYAFSSSWMNWVKQRPGKGLEWIGRIYPGDGETNNNGKFKGKATLTADKSSTTAYMQLSSLTSEDSAVYFCARGYGDYSFAYWGQGTLVTVSADIVMTQAAPSVPVTPGESVSISCRSSKSLLHSNGNTYLYWFLQRPGQSPQLLIYRMSNLASGVPDRFSGSGSGAAFTLRISRVEAEDVGVYYCMQHLEYPYTFGSGTKLEIK
B4: VB140 sc(Fv)2 (scFv, part only; not given: linkers and FLAG tag, part only)
scFv, part: B3 scFv, part with K23R, S25F, S31N, T77S, K253R, S255F, S261N, T307S
B5: VB16 diabody (scFv, V domains shown, part only)
VH: QVQLQQPGTELVRPGASVKLSCKASGYTFTDYWVNWVKQRPGRGLEWIGRIHPYDSETHYNQKFKNKATLTVDKSSSTAYIQLSSLTSEDSAVYYCASGGWFASWGQGTLVTVSA
VL: DIVMTQAAPSVPVTPGESVSISCRSSKSLLYSNGNTYLYWFLQRPGQSPQLLIYRMSNLASGVPDRFSGSGSGTAFTLTISSVEAEDVGVYYCMQHLEYPYTFGSGTKLEIK
modifications: (Gly4Ser)1 linker; C-terminal FLAG tag
B6: VB140 diabody (scFv, V domains shown, part only)
VH: QVQLQQSGPELVKPGASVKISCRAFGYAFSNSWMNWVKQRPGKGLEWIGRIYPGDGETNNNGKFKGKATLTADKSSSTAYMQLSSLTSEDSAVYFCARGYGDYSFAYWGQGTLVTVSA
VL: B5 VL with Y31H, T74A, T79R, S82R
modifications: (Gly4Ser)1 linker; C-terminal FLAG tag
B7: VB45B diabody (scFv, V domains shown, part only)
VH: B6 VH with R23K, F25S, N31S, S77T
VL: B5 VL with Y31H, T74A, T79R, S82R
modifications: (Gly4Ser)1 linker; C-terminal FLAG tag
B8: TA136 diabody (scFv, V domains shown, part only)
VH: DVQLQESGPGLVKPSQSLSLTCTVTGYSITSDYAWSWIRQLPGNKLEWMGYITYSGYSIYNPSLKSRISISRDTSKNQLFLQLNSVTTEDTATYYCVGGYDNMDYWGQGTSVTVSS
VL: QIVLTQSPAIMSASPGEKVTLTCSASSSVSSSHLYWYQQKPGSSPKLWIYSTSNLASGVPARFSGSGSGTSYSLTISNMETEDAASYFCHQWSSYPWTFGGGTKLEIK
modifications: (Gly4Ser)1 linker; C-terminal FLAG tag
B9: anti-human Mp1 antibody VB22B (antibody, mouse IgG2b, V domains shown)
VH: B6 VH with R23K, F25S, S30T, N59I, N60Y, K65R, G66V, Q82D, L83I, G101D
VL: B5 VL with V11I, Y31H, T79R, S82R, L97I, Y101F
notes: Mouse monoclonal antibody from a hybridoma, tested as culture supernatant; they were cloned with primers for the mouse IgG2b and kappa constant regions

The target in one experiment is full-length human Mp1 expressed on BaF3 cells (human) (UniProt P40238). Nature of the experiment: cell-based or functional assay.
Turning to B1, the agonistic activity (EC50 value: pM) in BaF3-human Mpl, cell proliferation (WST-8) turned out to be 95 pM.

B2 yielded an agonistic activity (EC50 value: pM) in BaF3-human Mpl, cell proliferation (WST-8) of 54 pM.

As for B3, the agonistic activity (EC50 value: pM) in BaF3-human Mpl, cell proliferation (WST-8) is 30 pM.

Regarding B4, the agonistic activity (EC50 value: pM) in BaF3-human Mpl, cell proliferation (WST-8) came out at 38 pM.

For the molecule B5, the agonistic activity (EC50 value: pM) in BaF3-human Mpl, cell proliferation (WST-8) turned out to be 190 pM.

As for B6, the agonistic activity (EC50 value: pM) in BaF3-human Mpl, cell proliferation (WST-8) is 89 pM.

Consider B7, for which the agonistic activity (EC50 value: pM) in BaF3-human Mpl, cell proliferation (WST-8) worked out at 76 pM.

The molecule B8 registered an agonistic activity (EC50 value: pM) in BaF3-human Mpl, cell proliferation (WST-8) of 3080 pM.

For another experiment, the target named is T1, human Mp1 (human, UniProt P40238 26-491, limits assumed).
T1 construct: The analyses of section 1.6 used shMp1-FLAG and hMp1-Fc in ELISA, and CHO-human Mp1 and BaF3-human Mp1 cells; also called human Mpl; TPO receptor
T1 sequence (looked up): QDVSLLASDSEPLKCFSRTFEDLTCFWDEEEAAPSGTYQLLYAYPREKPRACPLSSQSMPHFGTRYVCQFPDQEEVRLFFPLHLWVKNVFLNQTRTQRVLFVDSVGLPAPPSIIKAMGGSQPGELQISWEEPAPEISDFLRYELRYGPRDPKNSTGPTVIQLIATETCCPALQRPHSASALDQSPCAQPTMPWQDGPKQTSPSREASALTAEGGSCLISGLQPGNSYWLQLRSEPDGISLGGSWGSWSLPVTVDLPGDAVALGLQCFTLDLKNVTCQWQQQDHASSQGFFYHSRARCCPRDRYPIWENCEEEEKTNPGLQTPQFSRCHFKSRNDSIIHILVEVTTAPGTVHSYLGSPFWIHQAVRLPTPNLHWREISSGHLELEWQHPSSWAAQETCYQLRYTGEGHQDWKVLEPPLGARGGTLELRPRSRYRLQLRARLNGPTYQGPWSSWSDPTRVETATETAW
Nature of the experiment: hybridoma supernatants; ELISA on shMp1-FLAG and hMp1-Fc, flow cytometry on CHO-human Mp1 cells, BaF3-human Mp1 proliferation. The protocol:
MRL/MpJUmmCrj-lpr/lpr mice (hereinafter abbreviated as “MRL/lpr mice”; purchased from Charles River, Japan) were immunized; the primary immunization was carried out at eight weeks of age. For every single mouse, an emulsion containing 100 μg of shMPL-FLAG combined with Freud's complete adjuvant (H37 Ra; Beckton Dickinson), was administered subcutaneously as the primary injection. As a booster injection, an emulsion containing shMPL-FLAG (50 μg per mouse) combined with Freud's incomplete adjuvant (Beckton Dickinson) was administered subcutaneously. Three mice which have been immunized six times in total were subjected to a final injection of shMPL-FLAG (50 μg per mouse) through the caudal vein. Cell fusion was achieved by mixing the mouse myeloma P3-X63Ag8U1 cells (P3U1; purchased from ATCC) and mouse splenocytes using polyethylene glycol 1500 (Roche Diagnostics). Hybridoma selection in HAT medium began the following day and culture supernatants were obtained. Screening was carried out by ELISA using immunoplates with immobilized shMp1-FLAG or hMp1-Fc, and by a cell proliferation assay of BaF3-hMp1. Positive clones were isolated as single clones by limiting dilution and then cultured on a large scale. The culture supernatants were collected. Anti-human Mp1 antibody-producing hybridomas, VB22B, VB16, VB140, and VB45B, were obtained by this method.
A general note: ELISA stands for enzyme-linked immunosorbent assay.
For B9, the binding result is reported as “binds”.
